# Experimental data reported in US20260273085A1 (HANSOH BIO, published 2026).
# T1: human CDH6-His tag (Acro Biosystems, catalog number CA6-H5229) (human, UniProt P55285 54-615)
# T1 construct: Bought protein; also called hCDH6; not shown: His tag
# T1 sequence (looked up): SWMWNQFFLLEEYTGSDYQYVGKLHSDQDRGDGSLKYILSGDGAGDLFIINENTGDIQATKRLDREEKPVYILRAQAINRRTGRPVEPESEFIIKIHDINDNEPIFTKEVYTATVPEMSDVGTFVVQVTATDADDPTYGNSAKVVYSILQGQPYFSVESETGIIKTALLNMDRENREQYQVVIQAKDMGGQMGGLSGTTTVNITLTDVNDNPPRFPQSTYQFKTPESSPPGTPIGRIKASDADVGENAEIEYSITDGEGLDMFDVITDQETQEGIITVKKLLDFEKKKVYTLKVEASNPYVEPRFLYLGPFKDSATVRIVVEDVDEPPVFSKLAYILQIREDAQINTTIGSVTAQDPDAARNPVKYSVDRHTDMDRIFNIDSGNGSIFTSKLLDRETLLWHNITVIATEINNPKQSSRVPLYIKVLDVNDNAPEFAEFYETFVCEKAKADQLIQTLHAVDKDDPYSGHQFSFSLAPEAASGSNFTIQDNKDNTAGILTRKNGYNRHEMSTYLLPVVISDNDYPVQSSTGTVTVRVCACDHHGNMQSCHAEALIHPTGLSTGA
# T2: human CDH16-His tag (Sino biological, catalog number 10915-H08H) (human, UniProt O75309 19-786)
# T2 construct: Bought protein; also called hCDH16; not shown: His tag
# T2 sequence (looked up): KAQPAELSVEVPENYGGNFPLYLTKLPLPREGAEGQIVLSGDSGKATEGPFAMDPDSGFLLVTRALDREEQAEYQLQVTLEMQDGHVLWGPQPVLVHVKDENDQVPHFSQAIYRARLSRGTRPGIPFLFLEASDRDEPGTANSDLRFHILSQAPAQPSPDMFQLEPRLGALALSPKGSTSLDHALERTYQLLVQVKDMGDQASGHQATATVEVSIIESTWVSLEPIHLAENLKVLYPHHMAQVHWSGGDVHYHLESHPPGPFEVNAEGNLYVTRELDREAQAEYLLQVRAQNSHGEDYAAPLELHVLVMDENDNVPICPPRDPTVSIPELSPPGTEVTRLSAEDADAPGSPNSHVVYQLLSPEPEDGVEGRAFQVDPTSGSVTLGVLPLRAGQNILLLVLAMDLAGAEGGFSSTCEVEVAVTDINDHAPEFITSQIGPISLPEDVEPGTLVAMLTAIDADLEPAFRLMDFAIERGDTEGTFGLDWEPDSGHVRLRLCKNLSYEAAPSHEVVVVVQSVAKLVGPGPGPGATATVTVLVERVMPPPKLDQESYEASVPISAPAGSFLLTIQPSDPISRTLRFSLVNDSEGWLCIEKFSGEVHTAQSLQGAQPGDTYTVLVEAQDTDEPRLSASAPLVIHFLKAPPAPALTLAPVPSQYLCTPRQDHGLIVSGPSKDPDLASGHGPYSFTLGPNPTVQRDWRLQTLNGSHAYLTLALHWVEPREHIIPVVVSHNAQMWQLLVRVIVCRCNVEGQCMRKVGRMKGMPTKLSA
# B1: 1H10 anti-CDH17 recombinant antibody (human IgG1) (antibody, V domains shown)
# VH: QVQLVESGGGVVQPGRSLRLSCVASGFTFSSYGMHWVRQAPGKGLEWVTFIWYDGSNKNYADSVKGRFTISRDNSKNTLNLQMNSLRVEDTAVYYCARDRYSSGWDVFDYWGQGTLVTVSS
# VL: DIQMTQSPSSVSASVGDRVTITCRASQDISSWLAWYQQQPGKAPKLQIYAASSLQSGVPSRFSGSGSGTDFTLTISSLQPEDFATYYCQQAKSFPPTFGQGTKVEIKR
# B2: 15A4 anti-CDH17 recombinant antibody (human IgG1) (antibody, V domains shown)
# VH: QVQLVESGGGVVQPGRSLRLSCAASGFNFSSYGMHWVRQAPGKGLEWVAFVWYDGSNQNYADSVKGRFTISRDNSNNTLYLQMNSLRAEDTAVYYCARDRYSSGWDVFDYWGQGTLVTVSS
# VL: DIQMTQSPSSVSASVGDRVTITCRASQGISSWLAWYQQKPGKAPKLLIFAASSLQSGVPSRFSGSGSGTGFTLTISSLQPEDFATYYCQQAKSFPPTFGQGTKVEIKR
# B3: 10E11 anti-CDH17 recombinant antibody (human IgG1) (antibody, V domains shown)
# VH: EVQLVQSGTEVKKPGESLKISCKDSGYRFSSYWIGWVRQMPGKGLEWMGIIYPGDSDTRYSPSFQGQVTISADKSISTAYLQWRSLKASDTAMYYCARRGWVNYFDYWGQGTLVTVSS
# VL: DIQMTQSPSSVSASVGDRVTITCRASQGISNWLGWYQQKPGKAPKLLIYAASSLQSGVPSRFSGSGSGTDFTLTISSLQPEDFATYYCQQANSFPLTFGGGTKVEIKR
# notes: Recombinant human IgG1 / kappa, expressed in CHO or ExpiCHO-S cells
# B4: 14B12 anti-CDH17 recombinant antibody (human IgG1) (antibody, V domains shown)
# VH: QVQLQESGPGLVKPSETLSLTCTVSGGSINTYYRSWIRQPPGKGLEWIGYIYYSGNTNYNPSLKSRVTISADTSKNQFSLNLISVTAADTAMYYCARAQYGEEAFDIWGQGTLVTVSS
# VL: DIQMTQSPSSLSASVGDRVTITCRASQSITTYLNWYQQKPGKAPQLLIFAASRLQTGVPSRFSGSGSGTDFTLTISSLLPGDFATYYCQQSYNTPPTFGGGTKVEIKR
# notes: as for B3
# B5: 2F9 anti-CDH17 recombinant antibody (human IgG1) (antibody, V domains shown)
# VH: EVQLVESGGGVVRPGGSLRLSCAASGFTFDDYGMSWVRQAPGKGLEWVSGLSWNGGNTYYADSVKGRFTISRDNAKNSLYLQMNSLRAEDTALYYCARGSRYNWNYDAFDIWGQGTLVTVSS
# VL: DIQMTQSPSSLSASIGDRVTITCRASQGIRNALGWYQQKPGKAPKRLIYAASNLQSGVPSRFSGSGSGTEFTLTISSLQPEDFATYYCLQHNSYPFTFGPGTKVEIKR
# B6: 9E2 anti-CDH17 recombinant antibody (human IgG1) (antibody, V domains shown)
# VH: EVQLVESGGGVVRPGGSLRLSCAASGFTFDNYGMSWVRQAPGKGLEWVSGINWNGGSTYYADSVRGRFTISRDNAKNSLYLQMNSLRAEDTALYYCARGSRYNWSYDAFDIWGQGTLVTVSS
# VL: DIQMTQSPSSLSASVGDRVTITCRASQGVRNALGWYQQKPGKAPKRLIYAASSLQSGVPSRFSGSGSGTEFTLTISSLQPEDFATYYCLQHNSYPFTFGPGTKVEIKR
# B7: 4F9 anti-CDH17 recombinant antibody (human IgG1) (antibody, V domains shown)
# VH: QVQLQESGPGLVKPSGTLSLTCAVSGGSISSSNWWSWVRQPPGKGLEWIGEIYHSGSTSYNPSLKSRVTISVDKSKNQFSLKLSSVTAADTAVYYCARNDWGFPLDCWGQGTLVTVSS
# VL: DIQMTQSPSSLSASVGDRVTITCRASQSISSYLNWYQQKPGKAPKLLIYAASSLQSGVPSRFSGSGSGTHFTLTISSLQPEDFATYYCQQSHNIPITFGQGTRLEIKR
# B8: 13C7 anti-CDH17 recombinant antibody (human IgG1) (antibody, V domains shown)
# VH: QITLKESGPTLVKPTQTLTLTCTFSGFSLSTSGVGVGWIRQPPGKALEWLALIYWNDDKRYRPSLKNRLTITKDTSKNQVVLTMTNMDPVDTATYYCTHYGVTAPFYNWFDPWGQGTLVTVSS
# VL: DIQMTQSPSSLSASVGDRVTITCRASQSITSYLNWYQQKPGKAPKLLIYAASSLQSGVPSRFSGSGSGTDFTLTISSLQPEDFATYYCQRSYSTLTFGGGTKVEIKR
# B9: 19C7 anti-CDH17 recombinant antibody (human IgG1) (antibody, V domains shown)
# VH: QITLKESGPTLVKPTQTLTLTCTFSGISLSTGGVGVGWIRQPPGKALEWLSLIYWNDDKRYSPSLKSRLTITKDSSKNQVVLTMTNMDPVDTATYYCAHSGLAAPFYNWFDPWGQGTLVTVSS
# VL: DIQMTQSPSSLSASVGDRVTITCRASQSISNYLNWYQLKPGNAPKLLIFAASSLQSGVPSRFSGSGSGTDFTLTISSLQPEDFATYFCQRSYSTLTFGGGTKVEIKR
# B10: 17F3 anti-CDH17 recombinant antibody (human IgG1) (antibody, V domains shown)
# VH: EVQLVESGGGLVKSGGSLRLSCAASGFTFSSYSLKWVRQAPGKGLEWVSSISSSSGYIYYADSVKGRFTISRDNAKNSLYLQMNSLRAEDTAMYYCARAVSTIAARPGYYYYYMDVWGKGTLVTVSS
# VL: DIQMTQSPSSVSASIGDRVTITCRASQDISTWFAWYQQKPGKAPKLLIYAASTLRSGVPSRFSGSGSGTDFTLTINSLQPEDFATYYCQQANSFPLTFGGGTKVEIKR
# Tests used:
# [1] = biological target: human CDH17 as originally expressed on cancer cells (AsPC1, GP2d and other CDH17 expressing cell lines) (human) (UniProt Q12864); assay: flow cytometry on AsPC1 cells, Alexa Fluor 647 labelled antibody
# [2] = biological target: human CDH17 as originally expressed on cancer cells (AsPC1, GP2d and other CDH17 expressing cell lines) (human, UniProt Q12864 23-832); assay: cell-based or functional assay
# [3] = biological target: T3, cynomolgus CDH17-His tag (Acro Biosystems, catalog number CA7-C52H4) (cynomolgus, UniProt A0A2K5X8I8 31-795); assay: BLI (Octet Red 384), antibody captured on AHC biosensor, antigen 200 nM to 3.1 nM
# T3 construct: Bought protein; also called cCDH17; cynomolgus CDH17 protein; not shown: His tag
# T3 sequence (A0A2K5X8I8 entry or part of it, form in doubt): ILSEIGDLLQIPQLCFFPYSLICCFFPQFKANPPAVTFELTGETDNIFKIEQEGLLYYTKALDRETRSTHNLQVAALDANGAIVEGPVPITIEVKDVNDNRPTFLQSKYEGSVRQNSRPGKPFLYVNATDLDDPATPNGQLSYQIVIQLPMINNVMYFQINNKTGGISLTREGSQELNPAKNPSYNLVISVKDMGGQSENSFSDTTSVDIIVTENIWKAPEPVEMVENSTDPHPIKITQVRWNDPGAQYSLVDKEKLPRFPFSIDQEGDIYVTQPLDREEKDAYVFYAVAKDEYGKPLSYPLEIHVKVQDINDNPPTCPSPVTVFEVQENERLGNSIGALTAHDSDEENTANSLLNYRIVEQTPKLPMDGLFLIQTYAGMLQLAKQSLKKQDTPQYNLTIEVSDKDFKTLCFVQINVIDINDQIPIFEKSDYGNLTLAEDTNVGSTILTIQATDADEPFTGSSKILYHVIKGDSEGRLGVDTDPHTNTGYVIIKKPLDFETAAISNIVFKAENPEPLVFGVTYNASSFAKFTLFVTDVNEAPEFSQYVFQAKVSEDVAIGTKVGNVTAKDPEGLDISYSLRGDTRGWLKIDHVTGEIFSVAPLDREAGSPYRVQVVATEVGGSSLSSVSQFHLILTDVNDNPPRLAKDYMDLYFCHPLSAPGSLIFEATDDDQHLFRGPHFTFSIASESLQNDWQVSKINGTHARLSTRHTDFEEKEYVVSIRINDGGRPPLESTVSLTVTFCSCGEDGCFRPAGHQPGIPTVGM
# Procedure: (§1) The affinity between CDH17 antibodies and CDH17 antigens and homologues was determined by Octet (Octet Red 384) instrument. Anti-hIgG Fc Capture (AHC) Biosensors were selected, and the sensors were balanced with buffer solution for 10 min. Subsequently, sensors were dipped into the wells containing 1 μg/ml of CDH17 lead antibodies to load onto the probes. The excess unbound antibodies were washed off. The antigen binding was performed in the wells containing serially diluted human CDH17-His tag (Sino biological, catalog number 11360-H08H), cynomolgus CDH17-His tag (Acro Biosystems, catalog number CA7-C52H4), homologs human CDH6-His tag (Acro Biosystems, catalog number CA6-H5229) and human CDH16-His tag (Sino biological, catalog number 10915-H08H), with concentration ranging from 200 nM to 3.1 nM, for 5 min. Then probes were dipped into wells containing renewed buffer to initiate the dissociation for another 15 min.
# [4] = biological target: T1, human CDH6-His tag (Acro Biosystems, …); assay: BLI (Octet Red 384), antibody captured on AHC biosensor
# Procedure: as §1
# [5] = biological target: T2, human CDH16-His tag (Sino biological, …); assay: as above
# Procedure: as §1
Molecule,"IC50 of indirect killing assay (internalization) in AsPC1 cells, complex with Fab anti-human IgG Fc-MMAF [2] [nM]",also measured
"HBMAB-81, reformatted mAb with the CDH17 binding arm from bispecific antibody BI 905771 and human IgG1 backbone",,EC80 [1]: 0.97 nM
B1,0.19,
B2,1.99,
B3,0.08,Kd [3]: 15 nM; koff [3]: 0.0012 s⁻¹; kon [3]: 80000 M⁻¹ s⁻¹; binding result [4]: no binding (tested: 200 nM highest antigen concentration); binding result [5]: no binding (tested: 200 nM highest antigen concentration)
B4,0.09,binding result [4]: no binding (tested: 200 nM highest antigen concentration); binding result [5]: no binding (tested: 200 nM highest antigen concentration)
B5,0.14,
B6,0.15,
B7,0.29,
B8,0.09,
B9,0.09,
B10,0.08,
